Assay [1] deals with HA of influenza B virus ca B/Ann Arbor/2/94 (yamagata) (influenza B virus B/Ann Arbor/2/94). Nature of the assay: cell-based or functional assay.
Assay [2] has as its target HA of influenza B virus ca B/Ann Arbor/1/66 (influenza B virus B/Ann Arbor/1/66). Put plainly: cell-based or functional assay.
Assay [3] deals with HA of influenza B virus B/Lee/40 (influenza B virus B/Lee/40) (UniProt P03460). Nature of the assay: cell-based or functional assay.
Assay [4] concerns the target HA of influenza B virus ca B/Beijing/243/97 (victoria) (influenza B virus B/Beijing/243/97). Nature of the assay: cell-based or functional assay.
For assay [5], the target named is HA of influenza B virus B/Sichuan/379/99 (yamagata) (influenza B virus B/Sichuan/379/99). Put plainly: cell-based or functional assay.
Assay [6] has as its target HA of influenza B virus ca B/Brisbane/60/2008 (victoria) (influenza B virus B/Brisbane/60/2008). Put plainly: cell-based or functional assay.
The target in assay [7] is HA of influenza B virus ca B/Yamanashi/166/98 (yamagata) (influenza B virus B/Yamanashi/166/98). Nature of the assay: cell-based or functional assay.
Assay [8] has as its target HA of influenza B virus B/Hong Kong/5/72 (influenza B virus B/Hong Kong/5/72). Put plainly: cell-based or functional assay.
Assay [9] deals with HA of influenza B virus B/Malaysia/2506/2004 (victoria) (influenza B virus B/Malaysia/2506/2004). Put plainly: cell-based or functional assay.
The target of assay [10] is HA of influenza B virus B/Hong Kong/330/2001 (victoria) (influenza B virus B/Hong Kong/330/2001). Nature of the assay: cell-based or functional assay.
Assay [11] deals with recombinant HA derived from Yamagata lineage strain B/FLA/06 (B/Florida/4/2006) (influenza B virus B/Florida/4/2006). Put plainly: ELISA on coated recombinant HA, unpurified IgG. (In an ELISA, binding on a coated surface is turned into a signal by an enzyme label.)
Assay [12] addresses recombinant HA derived from Victoria lineage strain B/BNE/08 (B/Brisbane/60/2008) (influenza B virus B/Brisbane/60/2008). Nature of the assay: ELISA on coated recombinant HA, unpurified IgG.
Assay [13] has as its target recombinant HA derived from influenza A subtype H9 (A/chicken/HK/G9/97 (H9N2)) (influenza A virus A/chicken/Hong Kong/G9/97 (H9N2)). Put plainly: ELISA on coated recombinant H9 HA.

Consider 4 molecules from patent publication US20250263470A1.

B1: FBC-39 LSL (antibody, V domains shown)
VH: EVQLVESGGGLVKPGGSLRLSCAASGLSFLNAWMSWVRQAPGKGLEWVGRIKSNTDGGTTDYAAPVKGRFTISRDDSKNTLYLQMSSLKTEDTAVYYCTTDGPYSDDFRSGYAARYRYFGMDVWGQGTTVTVSS
VL: DIQMTQSPSSVSASVGDRVTITCRASQDISTWLAWYQQKPGKAPKLLIYAASSLQSGVPSRFSGSGSGTDFTLTISSLQPEDFATYYCQQANSFPPTFGQGTKLEIK
Regarding B1, the Neutralization (Ave IC50 ug/ml) in assay [1] was determined as 0.033 µg/mL; in assay [2], 0.027 µg/mL; in assay [3] it was 0.014 µg/mL; in [4], 0.182 µg/mL; in assay [5], 0.026 µg/mL; in [6] it was 0.1 µg/mL. The Neutralization (Ave IC50 ug/ml) in [7] is 0.014 µg/mL; in assay [8], 0.019 µg/mL; in assay [9] it was 0.094 µg/mL; in assay [10] it was 0.172 µg/mL. Further, the EC50 (commonly the concentration that produces a half-maximal response) worked out at 0.021 µg/mL in [11], 0.152 µg/mL in assay [12] and 41.7 µg/mL in assay [13].

B2: FBC-39 LTS (antibody, V domains shown)
VH: EVQLVESGGGLVKPGGSLRLSCAASGLTFSNAWMSWVRQAPGKGLEWVGRIKSNTDGGTTDYAAPVKGRFTISRDDSKNTLYLQMSSLKTEDTAVYYCTTDGPYSDDFRSGYAARYRYFGMDVWGQGTTVTVSS
VL: DIQMTQSPSSVSASVGDRVTITCRASQDISTWLAWYQQKPGKAPKLLIYAASSLQSGVPSRFSGSGSGTDFTLTISSLQPEDFATYYCQQANSFPPTFGQGTKLEIK
Take B2: the results for the concentration for a half-maximal effect (EC50) in assay [11] and in [12] were 0.013 µg/mL and more than 1 µg/mL, respectively.

B3: FBC-39 FSS (antibody, V domains shown)
VH: EVQLVESGGGLVKPGGSLRLSCAASGFSFSNAWMSWVRQAPGKGLEWVGRIKSNTDGGTTDYAAPVKGRFTISRDDSKNTLYLQMSSLKTEDTAVYYCTTDGPYSDDFRSGYAARYRYFGMDVWGQGTTVTVSS
VL: DIQMTQSPSSVSASVGDRVTITCRASQDISTWLAWYQQKPGKAPKLLIYAASSLQSGVPSRFSGSGSGTDFTLTISSLQPEDFATYYCQQANSFPPTFGQGTKLEIK
Turning to B3, the EC50 in [11] was 0.019 µg/mL; in [12], more than 1 µg/mL.

B4: FBC-39 FSL (antibody, V domains shown)
VH: EVQLVESGGGLVKPGGSLRLSCAASGFSFLNAWMSWVRQAPGKGLEWVGRIKSNTDGGTTDYAAPVKGRFTISRDDSKNTLYLQMSSLKTEDTAVYYCTTDGPYSDDFRSGYAARYRYFGMDVWGQGTTVTVSS
VL: DIQMTQSPSSVSASVGDRVTITCRASQDISTWLAWYQQKPGKAPKLLIYAASSLQSGVPSRFSGSGSGTDFTLTISSLQPEDFATYYCQQANSFPPTFGQGTKLEIK
Take B4: the Neutralization (Ave IC50 ug/ml) in [1] amounted to 0.023 µg/mL; in [2] it was 0.034 µg/mL; in assay [3] it was 0.011 µg/mL; in assay [4], 0.195 µg/mL; in [5] it was 0.022 µg/mL; in [6], 0.08 µg/mL. For the same molecule, the Neutralization (Ave IC50 ug/ml) in [7] turned out to be 0.009 µg/mL; in [8], 0.019 µg/mL; in [9] it was 0.076 µg/mL; in assay [10], 0.132 µg/mL. Besides, the half-maximal effective concentration (EC50) is 0.014 µg/mL in assay [11] and 0.273 µg/mL in [12].
